Experiment in all cases: MST; Monolith NT.115; 8.32 nM His-tagged DHS labelled with RED-tris-NTA, eIF5A titrated 0.00175-57.5 uM; 50 mM Tris, 200 mM NaCl, 5 mM beta-ME pH 8; free buffer
Details in all cases: both partners purified

Assay [1] addresses T1, deoxyhypusine synthase W327A, His-tagged (human, UniProt P49366 1-369, W327A).
T1 construct: deoxyhypusine synthase (DHS), Homo sapiens, UniProt P49366, residues 1-369; source: E. coli, purified; His-tagged protein labelled with RED-tris-NTA for MST; not shown: His6, N-terminal, kept
T1 sequence (looked up): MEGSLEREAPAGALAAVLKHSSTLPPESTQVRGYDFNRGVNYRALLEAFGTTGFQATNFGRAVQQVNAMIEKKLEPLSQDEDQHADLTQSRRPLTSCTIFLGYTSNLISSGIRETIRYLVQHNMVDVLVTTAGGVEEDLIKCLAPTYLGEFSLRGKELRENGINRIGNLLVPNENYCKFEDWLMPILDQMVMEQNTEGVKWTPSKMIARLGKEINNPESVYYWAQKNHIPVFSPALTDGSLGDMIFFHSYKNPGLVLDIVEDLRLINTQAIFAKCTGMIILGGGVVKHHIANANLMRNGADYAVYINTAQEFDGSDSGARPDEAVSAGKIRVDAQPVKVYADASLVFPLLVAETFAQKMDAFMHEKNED

Assay [2] addresses T2, deoxyhypusine synthase H288A, His-tagged (human, UniProt P49366 1-369, H288A).
T2 construct: deoxyhypusine synthase (DHS), Homo sapiens, UniProt P49366, residues 1-369; source: E. coli, purified; His-tagged protein labelled with RED-tris-NTA for MST; not shown: His6, N-terminal, kept
T2 sequence (looked up): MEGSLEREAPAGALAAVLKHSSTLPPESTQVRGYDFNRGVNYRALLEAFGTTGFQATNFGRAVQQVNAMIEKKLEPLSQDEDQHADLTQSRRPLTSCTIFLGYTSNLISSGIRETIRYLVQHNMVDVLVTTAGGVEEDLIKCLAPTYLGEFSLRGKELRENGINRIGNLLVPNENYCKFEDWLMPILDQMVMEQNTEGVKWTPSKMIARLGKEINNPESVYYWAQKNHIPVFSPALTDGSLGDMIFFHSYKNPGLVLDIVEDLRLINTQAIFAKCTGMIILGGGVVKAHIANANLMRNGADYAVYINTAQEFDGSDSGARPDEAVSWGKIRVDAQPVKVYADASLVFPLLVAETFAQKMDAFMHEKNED

The target in assay [3] is T3, deoxyhypusine synthase K329A, His-tagged (human, UniProt P49366 1-369, K329A).
T3 construct: deoxyhypusine synthase (DHS), Homo sapiens, UniProt P49366, residues 1-369; also called DHS^K329A; source: E. coli, purified; His-tagged protein labelled with RED-tris-NTA for MST; not shown: His6, N-terminal, kept
T3 sequence (looked up): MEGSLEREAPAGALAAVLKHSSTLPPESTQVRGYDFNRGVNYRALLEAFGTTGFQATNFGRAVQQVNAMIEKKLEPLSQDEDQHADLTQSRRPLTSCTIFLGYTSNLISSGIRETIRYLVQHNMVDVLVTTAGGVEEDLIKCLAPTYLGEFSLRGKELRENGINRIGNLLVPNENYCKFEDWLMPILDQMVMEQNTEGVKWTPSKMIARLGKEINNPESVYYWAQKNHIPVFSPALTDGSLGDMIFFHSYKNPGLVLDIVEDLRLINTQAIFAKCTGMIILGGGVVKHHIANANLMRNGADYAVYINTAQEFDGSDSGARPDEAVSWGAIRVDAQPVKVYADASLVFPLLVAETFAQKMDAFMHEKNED

Assay [4] addresses T4, deoxyhypusine synthase, wild type, His-tagged (human, UniProt P49366 1-369).
T4 construct: deoxyhypusine synthase (DHS), Homo sapiens, UniProt P49366, residues 1-369; N-terminal 6xHis-tag followed by a TEV site (pET24d); tag kept for the His-tag labelling in MST; also called DHS; DHS^wt; source: E. coli, purified; His-tagged protein labelled with RED-tris-NTA for MST; not shown: His6, N-terminal, kept
T4 sequence (looked up): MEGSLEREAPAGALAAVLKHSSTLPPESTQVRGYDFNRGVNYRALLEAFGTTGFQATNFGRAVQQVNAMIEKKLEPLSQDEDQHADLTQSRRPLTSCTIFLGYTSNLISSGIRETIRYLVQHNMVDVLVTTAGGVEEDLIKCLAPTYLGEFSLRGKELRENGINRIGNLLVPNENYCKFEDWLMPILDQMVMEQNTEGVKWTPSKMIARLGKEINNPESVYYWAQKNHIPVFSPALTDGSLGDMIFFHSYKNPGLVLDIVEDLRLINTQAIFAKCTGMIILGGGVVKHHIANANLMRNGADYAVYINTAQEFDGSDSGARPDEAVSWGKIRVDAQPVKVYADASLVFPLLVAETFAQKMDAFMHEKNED

In assay [5] the target is T5, deoxyhypusine synthase N173S, patient-derived variant, His-tagged (human, UniProt P49366 1-369, N173S).
T5 construct: deoxyhypusine synthase (DHS), Homo sapiens, UniProt P49366, residues 1-369, pathological variant N173S; also called DHS^N173S; source: E. coli, purified from the soluble fraction; His-tagged protein labelled with RED-tris-NTA for MST; not shown: His6, N-terminal, kept
T5 sequence (looked up): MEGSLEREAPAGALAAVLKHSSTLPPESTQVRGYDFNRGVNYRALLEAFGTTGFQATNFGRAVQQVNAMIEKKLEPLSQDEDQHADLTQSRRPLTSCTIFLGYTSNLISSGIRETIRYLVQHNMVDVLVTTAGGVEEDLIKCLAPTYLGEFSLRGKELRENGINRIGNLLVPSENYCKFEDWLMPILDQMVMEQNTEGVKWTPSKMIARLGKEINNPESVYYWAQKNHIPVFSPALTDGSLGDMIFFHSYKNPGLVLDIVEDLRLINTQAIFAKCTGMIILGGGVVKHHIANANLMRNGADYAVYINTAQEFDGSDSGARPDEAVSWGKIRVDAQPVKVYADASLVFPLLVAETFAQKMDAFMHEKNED

B1: eukaryotic translation factor 5A-1 (eIF5A-1), residues 15-151 (domain or fragment)
chain: not shown
notes: eIF5A1 (eukaryotic translation factor 5A-1), human, residues 15-151, from pET28-MHL (Addgene); The general purification removes the His tag with TEV; A His-tagged eIF5A1 was used only in the hypusination assay; source: E. coli, purified (HisTrap, TEV cleavage, reverse HisTrap, SEC); not shown: His tag, N-terminal, cleaved
By Kd is commonly meant the equilibrium constant for the complex coming apart. A low value points to tighter binding. Regarding B1, the dissociation constant (Kd) amounted to 602 ± 284 nM in assay [1]; 49.7 ± 28.7 nM in assay [2]; 129 ± 37.9 nM in assay [3]; 33.8 ± 8.5 nM in assay [4]; 115 ± 22.3 nM in assay [5].

These data come from article PMC10042821, “Cryo-EM structure of human eIF5A-DHS complex reveals the molecular basis of hypusination-associated neurodegenerative disorders” (Nature Communications, 2023).
